Measured values: article PMC4523205
Like-named read-outs stand apart in the source and are kept apart here.

What was measured:
[1] = molecular target: gp41_(596-606) peptide with Cys604 substituted by Ala, N-terminal biotin (HIV-1) (UniProt P04578); test: SPR; BIAcore 4000; biotinylated 11mer and its alanine-substituted variants on a streptavidin chip; 7B2 (Fab by the legend) at 20 μg/ml; responses of the irrelevant antibody Synagis subtracted
[2] = molecular target: rhesus macaque FcγR3A-1 (rhesus macaque) (UniProt A3RFZ7); test: SPR
rhesus macaque FcγR3A-1 (rhesus macaque), sequence (A3RFZ7 21-206): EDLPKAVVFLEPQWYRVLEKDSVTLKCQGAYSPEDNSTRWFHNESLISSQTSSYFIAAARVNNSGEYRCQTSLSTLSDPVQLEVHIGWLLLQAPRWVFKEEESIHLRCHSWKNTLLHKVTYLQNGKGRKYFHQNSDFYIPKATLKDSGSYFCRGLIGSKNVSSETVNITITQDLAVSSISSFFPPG

[3] = molecular target: Env of HIV-1 SF162.B, on virions (HIV-1) (UniProt P19550)
[4] = molecular target: Env of HIV-1 BaL.B, on virions (HIV-1)
[5] = molecular target: human FcγRI (CD64) (human) (UniProt P12314); test: SPR; mAb binding to recombinant purified Fc receptors; who was immobilised is not stated
human FcγRI (CD64) (human), sequence (P12314 16-292): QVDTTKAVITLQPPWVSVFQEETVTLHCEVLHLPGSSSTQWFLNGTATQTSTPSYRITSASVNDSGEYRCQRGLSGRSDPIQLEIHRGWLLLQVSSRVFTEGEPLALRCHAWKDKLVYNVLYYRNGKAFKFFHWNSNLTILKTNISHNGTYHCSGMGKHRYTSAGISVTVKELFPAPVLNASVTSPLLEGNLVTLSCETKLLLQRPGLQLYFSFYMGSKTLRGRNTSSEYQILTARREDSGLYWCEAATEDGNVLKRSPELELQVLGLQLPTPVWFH

[6] = molecular target: rhesus macaque FcγR3A-1 (rhesus macaque) (UniProt A3RFZ7); test: as above
[7] = molecular target: human FcγRIIIa/CD16 (human) (UniProt O75015); test: as above
[8] = molecular target: rhesus macaque FcγR3A-3 (rhesus macaque) (UniProt A3RFZ7); test: as above
rhesus macaque FcγR3A-3 (rhesus macaque), sequence (A3RFZ7 21-206): as the sequence (A3RFZ7 21-206) above

[9] = molecular target: Env of SHIV-BaL, on virions (HIV-1 (env of SHIV-BaL))
7B2 Fab = test: SPR; conditions: for response: sensorgram read at ~140 seconds after starting injection of 7B2 Fab, parent: est. 1400, read off a plot
[10] = binding response at saturation (~140 seconds after starting injection of 7B2 Fab)

Q: With 7B2 Fab as the substance, how does the off-rate relative to the wild-type peptide (fold) [1] read?
A: 2.8 fold

Q: 7B2 IgG1_AAA was tested. Which Kd [2] did it give?
A: 92.9 nM

Q: With 7B2 IgG1_AAA (antibody) as the substance, how does the neutralisation of HIV-1 SF162 in macrophages, IC90 [3] read?
A: 0.2 not printed

Q: And the neutralisation of HIV-1 BaL in peripheral blood monocytes differentiated into macrophages, ID50 [4]?
A: 0.05 µg/mL

Q: What about the Kd [5] of the same substance?
A: 49 nM

Q: What about the Kd [6] of the same substance?
A: 68.7 nM

Q: What about the Kd [7] of the same substance?
A: 1100 nM

Q: What about the Kd [8] of the same substance?
A: 147 nM

Q: And the neutralisation of SHIV-BaL in the TZM-bl assay, IC50 [9]?
A: > 50 µg/mL

Q: A32 IgG1_AAA was tested. Which Kd [2] did it give?
A: 46.2 nM

Q: How did the Kd [6] turn out when A32 IgG1_AAA (antibody) was run?
A: 50 nM

Q: What about the koff [6] of the same substance?
A: 0.0094 s⁻¹

Q: What about the kon [6] of the same substance?
A: 190000 M⁻¹ s⁻¹

Q: And the Kd [8]?
A: 56 nM

Q: And the koff [8]?
A: 0.0061 s⁻¹

Q: And the kon [8]?
A: 110000 M⁻¹ s⁻¹

Q: “gp41_(596-606) peptide, wild type, N-terminal biotin C598A” was tested. Which ratio to parent (7B2 Fab) did it give?
A: 25

Q: What about the ratio to parent (7B2 Fab; [10]) of the same substance?
A: 0.16

Q: What about the response (7B2 Fab) of the same substance?
A: 200 RU

Q: “gp41_(596-606) peptide, wild type, N-terminal biotin G597A” was tested. Which ratio to parent (7B2 Fab) did it give?
A: 5.15

Q: What about the ratio to parent (7B2 Fab; [10]) of the same substance?
A: 0.6

Q: For “gp41_(596-606) peptide, wild type, N-terminal biotin G600A”, which ratio to parent (7B2 Fab) is on record?
A: 0

Q: What about the ratio to parent (7B2 Fab; [10]) of the same substance?
A: 0

Q: “gp41_(596-606) peptide, wild type, N-terminal biotin I603A” was tested. Which ratio to parent (7B2 Fab) did it give?
A: 31.7

Q: What about the ratio to parent (7B2 Fab; [10]) of the same substance?
A: 0.32

Q: And the response (7B2 Fab)?
A: 430 RU

Q: What does the source list for “gp41_(596-606) peptide, wild type, N-terminal biotin K601A”?
A: ratio to parent (7B2 Fab): 0.59; ratio to parent (7B2 Fab; [10]): 1.24

Q: Which ratio to parent (7B2 Fab) does the source give for “gp41_(596-606) peptide, wild type, N-terminal biotin L602A” here?
A: 4.65

Q: And the ratio to parent (7B2 Fab; [10])?
A: 0.38

Q: Which ratio to parent (7B2 Fab) does the source give for “gp41_(596-606) peptide, wild type, N-terminal biotin S599A” here?
A: 21.4

Q: And the ratio to parent (7B2 Fab; [10])?
A: 0.64

Q: And the response (7B2 Fab)?
A: 880 RU

Q: Which ratio to parent (7B2 Fab) does the source give for “gp41_(596-606) peptide, wild type, N-terminal biotin T605A” here?
A: 0.79

Q: And the ratio to parent (7B2 Fab; [10])?
A: 0.99

Q: Which results are given for “gp41_(596-606) peptide, wild type, N-terminal biotin T606A”?
A: ratio to parent (7B2 Fab): 1.11; ratio to parent (7B2 Fab; [10]): 0.89

Q: With “gp41_(596-606) peptide, wild type, N-terminal biotin W596A” as the substance, how does the ratio to parent (7B2 Fab) read?
A: 8.65

Q: And the ratio to parent (7B2 Fab; [10])?
A: 0.83
